Test results: publication PMC8880779

Experiments:
[1] = molecular target: Human Aβ(1–42)-HiLyte™-Fluor555 (human) (UniProt P05067); experiment: other fluorescence titration; reversion of the fluorescence increase: 100 nM non-labelled Aβ(1–42) added after complex formation of 10 nM Aβ(1–42) HiLyte Fluor555 with 5 nM CaM; same buffer, 24–25 °C
[2] = molecular target: Human Aβ(1–42)-HiLyte™-Fluor555 (human) (UniProt P05067); experiment: other fluorescence titration; kinetics of the fluorescence increase of 10 nM Aβ(1–42) HiLyte Fluor555 after addition of 10 nM CaM (1:1 molar ratio); 50 mM Hepes, 100 mM KCl, 50 µM CaCl2, pH 7.05; 24–25 °C
[3] = molecular target: Human Aβ(1–42)-HiLyte™-Fluor555 (human) (UniProt P05067); experiment: other fluorescence titration; kinetics of the fluorescence increase of 10 nM Aβ(1–42) HiLyte Fluor555 after addition of 5 nM CaM (series 2.5, 5, 10 nM for the maximum change); 50 mM Hepes, 100 mM KCl, 50 µM CaCl2, pH 7.05; 24–25 °C; excitation 520 nm, emission 567 nm

time needed for the decay to half the increase of fluorescence [1]: 900 s | half-time of complex formation (10 nM CaM) [2]: 38 s | rate constant of the kinetic process of complex formation (10 nM CaM) [2]: 0.018 s⁻¹ | stoichiometry N (Aβ(1–42) per CaM) [3]: 2
Substance: calmodulin (CaM) (from UniProt P62157 1-149) (natural protein; other documents disagree on this pair)
